Experimental findings from US7005505 (Genentech, dated 2006) are described below.

Some results are limits rather than exact numbers.

Assay [1] deals with T1, KDR-IgG (UniProt P35968 20-764).
T1 construct: Construct only cited from Park et al. 1994; also called KDR receptor-IgG chimera; soluble KDR; not shown: IgG part of the chimera (captured by anti-human IgG Fc)
Put plainly: competition with 125I-VEGF165 for KDR-IgG, n=8. As for the experimental part:
(§1) After the supernatant was discarded, the wells were washed three times in washing buffer (0.01% Tween 80 in PBS). The plate was blocked (300 µl/well) for one hr in assay buffer (0.5% BSA, 0.03% Tween 80, 0.01% Thimerosal in PBS). The supernatant was discarded and the wells were washed. […] Aliquots of this solution (100 µl) were added to pre-coated microtiter plates and incubated for 4 hr at ambient temperature with gentle agitation. The supernatant was discarded, the plate washed, and individual microtiter wells were counted by gamma scintigraphy (LKB model 1277).
(§2) In addition to the specific amino acid substitutions, the table indicates the mean residue number for the position of the mutation(s). For a given mutant, this number is the average of the altered positions.

Assay [2] addresses T2, FLT-1 IgG (UniProt P17948 27-758).
T2 construct: Construct only cited from Park et al. 1994; also called FLT-IgG; FLT-1 receptor-IgG chimera; not shown: IgG part of the chimera (captured by anti-human IgG Fc)
Put plainly: competition with 125I-VEGF165 for FLT-1-IgG, with heparin. As for the experimental part: as §1

Assay [3] addresses T2, FLT-1 IgG. Put plainly: competition with 125I-VEGF165 for FLT-1-IgG, radioligand plate assay, no heparin. On the procedure: as §1
The target of assay [4] is T1, KDR-IgG. Put plainly: competition with 125I-VEGF165 for KDR-IgG, radioligand plate assay, no heparin. On the procedure:
as §1, §2

In assay [5] the target is T2, FLT-1 IgG. Put plainly: competition with 125I-VEGF165 for FLT-1-IgG, radioligand plate assay. As for the experimental part: as §1
The target in assay [6] is T2, FLT-1 IgG. Described as above. As for the experimental part: as §1
This is another data set of the same source.

For assay [7], the target named is T1, KDR-IgG. Put plainly: competition with 125I-VEGF165 for KDR-IgG, radioligand plate assay. As for the experimental part: as §1

T1 sequence (P35968 20-764): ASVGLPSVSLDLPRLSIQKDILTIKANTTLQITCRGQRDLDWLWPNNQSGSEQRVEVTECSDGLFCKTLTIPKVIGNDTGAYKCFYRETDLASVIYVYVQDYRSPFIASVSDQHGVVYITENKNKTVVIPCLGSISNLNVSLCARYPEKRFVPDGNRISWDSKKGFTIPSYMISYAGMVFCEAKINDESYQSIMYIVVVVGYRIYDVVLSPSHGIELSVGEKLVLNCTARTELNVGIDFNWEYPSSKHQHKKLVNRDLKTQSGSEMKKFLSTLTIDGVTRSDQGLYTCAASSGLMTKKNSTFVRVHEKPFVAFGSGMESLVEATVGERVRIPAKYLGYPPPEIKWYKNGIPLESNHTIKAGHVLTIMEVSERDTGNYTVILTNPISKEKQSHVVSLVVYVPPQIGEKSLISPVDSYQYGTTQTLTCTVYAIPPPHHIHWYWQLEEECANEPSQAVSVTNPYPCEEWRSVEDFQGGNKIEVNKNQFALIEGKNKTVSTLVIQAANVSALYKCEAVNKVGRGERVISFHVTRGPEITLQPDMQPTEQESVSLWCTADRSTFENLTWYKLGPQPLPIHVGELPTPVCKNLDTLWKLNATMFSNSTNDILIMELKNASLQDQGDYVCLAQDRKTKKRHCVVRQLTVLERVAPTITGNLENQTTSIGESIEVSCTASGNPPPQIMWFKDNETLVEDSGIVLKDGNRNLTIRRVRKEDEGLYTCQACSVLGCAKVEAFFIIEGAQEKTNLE
T2 sequence (P17948 27-758): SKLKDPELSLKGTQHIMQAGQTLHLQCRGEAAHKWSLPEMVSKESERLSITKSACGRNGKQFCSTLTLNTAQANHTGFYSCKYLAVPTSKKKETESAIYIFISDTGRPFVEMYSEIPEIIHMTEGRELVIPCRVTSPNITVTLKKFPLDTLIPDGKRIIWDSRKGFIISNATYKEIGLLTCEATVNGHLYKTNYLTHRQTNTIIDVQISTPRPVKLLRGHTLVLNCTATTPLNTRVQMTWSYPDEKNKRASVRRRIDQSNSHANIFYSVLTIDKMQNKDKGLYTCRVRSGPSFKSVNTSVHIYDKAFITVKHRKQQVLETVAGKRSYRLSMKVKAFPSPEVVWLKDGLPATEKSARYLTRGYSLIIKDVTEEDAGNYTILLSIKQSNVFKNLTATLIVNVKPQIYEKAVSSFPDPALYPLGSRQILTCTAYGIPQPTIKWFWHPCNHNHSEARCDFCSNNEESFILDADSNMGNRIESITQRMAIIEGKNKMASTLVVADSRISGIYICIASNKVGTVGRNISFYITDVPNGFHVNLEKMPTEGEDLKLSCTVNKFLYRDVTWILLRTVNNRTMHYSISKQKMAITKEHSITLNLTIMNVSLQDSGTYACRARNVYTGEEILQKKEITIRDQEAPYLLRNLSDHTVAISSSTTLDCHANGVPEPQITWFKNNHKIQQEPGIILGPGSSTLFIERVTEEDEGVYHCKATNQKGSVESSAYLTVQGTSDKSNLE

B1: wildtype VEGF165 expressed in 293 cells (ligand)
chain: APMAEGGGQNHHEVVKFMDVYQRSYCHPIETLVDIFQEYPDEIEYIFKPSCVPLMRCGGCCNDEGLECVPTEESNITMQIMRIKPHQGQHIGEMSFLQHNKCECRPKKDRARQENPCGPCSERRKHLFVQDPQTCKCSCKNTDSRCKARQLELNERTCRCDKPRR
modifications: N-linked carbohydrate at Asn75
notes: Transiently expressed in 293 cells; tested as conditioned medium
One may read the IC50 as the midpoint of a concentration-inhibition curve. Higher therefore signals weaker potency in that assay. Turning to B1, the 50% inhibitory concentration (IC50) with KDR-IgG [1] was 0.031 nM; with FLT-1 IgG [2], 0.015 nM; with FLT-1 IgG [3], 0.022 nM; with KDR-IgG [4] it was 0.03 nM.

B2: E44A VEGF (ligand)
chain: APMAEGGGQNHHEVVKFMDVYQRSYCHPIETLVDIFQEYPDEIAYIFKPSCVPLMRCGGCCNDEGLECVPTEESNITMQIMRIKPHQGQHIGEMSFLQHNKCECRPKKDRARQENPCGPCSERRKHLFVQDPQTCKCSCKNTDSRCKARQLELNERTCRCDKPRR
notes: VEGF165 mutant from 293 cells, conditioned medium
Take B2: the IC50 in the assay with FLT-1 IgG [3] stood at 0.009 nM; with KDR-IgG [4], 0.004 nM; in the assay with FLT-1 IgG [5] it was 0.54 ng/mL.

B3: R112A, E114A VEGF (ligand)
chain: APMAEGGGQNHHEVVKFMDVYQRSYCHPIETLVDIFQEYPDEIEYIFKPSCVPLMRCGGCCNDEGLECVPTEESNITMQIMRIKPHQGQHIGEMSFLQHNKCECRPKKDRAAQANPCGPCSERRKHLFVQDPQTCKCSCKNTDSRCKARQLELNERTCRCDKPRR
notes: as for B2
Turning to B3, the half-maximal inhibitory concentration (IC50) came out at 0.013 nM with FLT-1 IgG [3], 0.04 nM with KDR-IgG [4] and 0.56 ng/mL with FLT-1 IgG [5].

B4: K48A VEGF (ligand)
chain: APMAEGGGQNHHEVVKFMDVYQRSYCHPIETLVDIFQEYPDEIEYIFAPSCVPLMRCGGCCNDEGLECVPTEESNITMQIMRIKPHQGQHIGEMSFLQHNKCECRPKKDRARQENPCGPCSERRKHLFVQDPQTCKCSCKNTDSRCKARQLELNERTCRCDKPRR
notes: as for B2
For the molecule B4, the IC50 turned out to be 0.026 nM with FLT-1 IgG [3], 0.02 nM with KDR-IgG [4] and 1.08 ng/mL with FLT-1 IgG [5].

B5: D63A VEGF (ligand)
chain: APMAEGGGQNHHEVVKFMDVYQRSYCHPIETLVDIFQEYPDEIEYIFKPSCVPLMRCGGCCNAEGLECVPTEESNITMQIMRIKPHQGQHIGEMSFLQHNKCECRPKKDRARQENPCGPCSERRKHLFVQDPQTCKCSCKNTDSRCKARQLELNERTCRCDKPRR
notes: as for B2
Turning to B5, the IC50 with FLT-1 IgG [6] amounted to 1.54 ng/mL; with FLT-1 IgG [3], 0.026 nM; in the assay with KDR-IgG [4], 0.005 nM.

B6: E42A VEGF (ligand)
chain: APMAEGGGQNHHEVVKFMDVYQRSYCHPIETLVDIFQEYPDAIEYIFKPSCVPLMRCGGCCNDEGLECVPTEESNITMQIMRIKPHQGQHIGEMSFLQHNKCECRPKKDRARQENPCGPCSERRKHLFVQDPQTCKCSCKNTDSRCKARQLELNERTCRCDKPRR
notes: as for B2
On to B6, for which the IC50 was determined as 0.008 nM in the assay with FLT-1 IgG [3], 0.007 nM in the assay with KDR-IgG [4] and 0.51 ng/mL with FLT-1 IgG [5].

B7: RIK(82-84)NLS VEGF (ligand)
chain: APMAEGGGQNHHEVVKFMDVYQRSYCHPIETLVDIFQEYPDEIEYIFKPSCVPLMRCGGCCNDEGLECVPTEESNITMQIMNLSPHQGQHIGEMSFLQHNKCECRPKKDRARQENPCGPCSERRKHLFVQDPQTCKCSCKNTDSRCKARQLELNERTCRCDKPRR
modifications: potential N-linked glycosylation site at position 82 (extent of glycosylation not apparent)
notes: Neo-glycosylation mutant from 293 cells, conditioned medium; also called R82N, I83L, K84S
For the molecule B7, the concentration for half-maximal inhibition (IC50) was 1.63 ng/mL with FLT-1 IgG [6], 0.029 nM in the assay with FLT-1 IgG [3], greater than 100 nM with KDR-IgG [4] and greater than 10000 ng/mL in the assay with KDR-IgG [7].

B8: E64N, L66S VEGF (ligand)
chain: APMAEGGGQNHHEVVKFMDVYQRSYCHPIETLVDIFQEYPDEIEYIFKPSCVPLMRCGGCCNDNGSECVPTEESNITMQIMRIKPHQGQHIGEMSFLQHNKCECRPKKDRARQENPCGPCSERRKHLFVQDPQTCKCSCKNTDSRCKARQLELNERTCRCDKPRR
modifications: putative extra N-linked glycosylation at position 64
notes: Neo-glycosylation mutant from 293 cells, conditioned medium
Take B8: the values for the 50% inhibitory concentration (IC50) with FLT-1 IgG [6], with FLT-1 IgG [2] and with FLT-1 IgG [3] were 35.6 ng/mL, 0.65 nM and 0.98 nM, respectively.

B9: R23A VEGF (ligand)
chain: APMAEGGGQNHHEVVKFMDVYQASYCHPIETLVDIFQEYPDEIEYIFKPSCVPLMRCGGCCNDEGLECVPTEESNITMQIMRIKPHQGQHIGEMSFLQHNKCECRPKKDRARQENPCGPCSERRKHLFVQDPQTCKCSCKNTDSRCKARQLELNERTCRCDKPRR
notes: as for B2
Consider B9, for which the 50% inhibitory concentration (IC50) was 0.03 nM in the assay with FLT-1 IgG [3], 2 ng/mL with KDR-IgG [7] and 1 ng/mL in the assay with FLT-1 IgG [5].

B10: H86A VEGF (ligand)
chain: APMAEGGGQNHHEVVKFMDVYQRSYCHPIETLVDIFQEYPDEIEYIFKPSCVPLMRCGGCCNDEGLECVPTEESNITMQIMRIKPAQGQHIGEMSFLQHNKCECRPKKDRARQENPCGPCSERRKHLFVQDPQTCKCSCKNTDSRCKARQLELNERTCRCDKPRR
notes: as for B2
In the case of B10, the half-inhibitory concentration (IC50) is 1.19 ng/mL with FLT-1 IgG [6], 0.015 nM with FLT-1 IgG [3] and 2 ng/mL with KDR-IgG [7].

B11: D109A, R110A VEGF (ligand)
chain: APMAEGGGQNHHEVVKFMDVYQRSYCHPIETLVDIFQEYPDEIEYIFKPSCVPLMRCGGCCNDEGLECVPTEESNITMQIMRIKPHQGQHIGEMSFLQHNKCECRPKKAAARQENPCGPCSERRKHLFVQDPQTCKCSCKNTDSRCKARQLELNERTCRCDKPRR
notes: as for B2
As for B11, the half-inhibitory concentration (IC50) worked out at 0.035 nM in the assay with FLT-1 IgG [3], 0.03 nM in the assay with KDR-IgG [4] and 1.42 ng/mL with FLT-1 IgG [5].

B12: E64A VEGF (ligand)
chain: APMAEGGGQNHHEVVKFMDVYQRSYCHPIETLVDIFQEYPDEIEYIFKPSCVPLMRCGGCCNDAGLECVPTEESNITMQIMRIKPHQGQHIGEMSFLQHNKCECRPKKDRARQENPCGPCSERRKHLFVQDPQTCKCSCKNTDSRCKARQLELNERTCRCDKPRR
notes: as for B2
In the case of B12, the IC50 with FLT-1 IgG [6] stood at 0.94 ng/mL; in the assay with FLT-1 IgG [3], 0.016 nM; in the assay with KDR-IgG [7], 8 ng/mL.
